Laboratory results published in article PMC6254361, “The properties of Msh2–Msh6 ATP binding mutants suggest a signal amplification mechanism in DNA mismatch repair” (The Journal of Biological Chemistry, 2018).

What was measured:
Msh2(K694R)–Msh6 = Msh2(K694R)–Msh6 (S. cerevisiae, UniProt P25847 1-964; Q03834 1-1242, K694R); assay: cell-based or functional assay
Msh2(K694A)–Msh6 = Msh2(K694A)–Msh6 (S. cerevisiae, UniProt P25847 1-964; Q03834 1-1242, K694A); assay: cell-based or functional assay
Sequence of Msh2(K694A)–Msh6 (P25847 whole entry K694A, chain 1 of 2): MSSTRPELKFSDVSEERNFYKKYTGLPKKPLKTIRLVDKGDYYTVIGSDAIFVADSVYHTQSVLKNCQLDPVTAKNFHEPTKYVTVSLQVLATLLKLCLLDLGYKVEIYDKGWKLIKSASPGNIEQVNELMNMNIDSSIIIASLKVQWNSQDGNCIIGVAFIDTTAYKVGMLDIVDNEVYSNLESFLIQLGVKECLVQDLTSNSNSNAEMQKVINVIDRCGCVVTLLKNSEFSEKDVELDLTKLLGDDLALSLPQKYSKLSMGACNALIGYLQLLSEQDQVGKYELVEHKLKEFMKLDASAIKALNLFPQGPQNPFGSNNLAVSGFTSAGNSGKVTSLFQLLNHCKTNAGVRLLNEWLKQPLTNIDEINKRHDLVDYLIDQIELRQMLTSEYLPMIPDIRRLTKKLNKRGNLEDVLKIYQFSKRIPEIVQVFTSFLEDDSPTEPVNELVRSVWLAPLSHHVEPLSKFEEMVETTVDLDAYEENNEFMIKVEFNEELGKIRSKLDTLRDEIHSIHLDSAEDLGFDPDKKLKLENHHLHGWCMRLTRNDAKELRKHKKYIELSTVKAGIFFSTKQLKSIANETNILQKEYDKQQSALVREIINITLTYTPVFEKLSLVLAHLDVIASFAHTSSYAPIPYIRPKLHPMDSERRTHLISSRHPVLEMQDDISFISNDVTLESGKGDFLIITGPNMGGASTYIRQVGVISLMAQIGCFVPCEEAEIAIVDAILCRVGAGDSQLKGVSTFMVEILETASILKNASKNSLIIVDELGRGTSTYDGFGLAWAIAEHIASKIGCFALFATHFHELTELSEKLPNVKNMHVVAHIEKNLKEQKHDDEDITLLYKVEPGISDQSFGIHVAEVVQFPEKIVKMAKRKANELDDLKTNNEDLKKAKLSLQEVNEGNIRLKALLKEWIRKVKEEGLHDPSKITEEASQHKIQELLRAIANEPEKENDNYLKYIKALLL
Sequence of Msh2(K694A)–Msh6 (Q03834 whole entry, chain 2 of 2): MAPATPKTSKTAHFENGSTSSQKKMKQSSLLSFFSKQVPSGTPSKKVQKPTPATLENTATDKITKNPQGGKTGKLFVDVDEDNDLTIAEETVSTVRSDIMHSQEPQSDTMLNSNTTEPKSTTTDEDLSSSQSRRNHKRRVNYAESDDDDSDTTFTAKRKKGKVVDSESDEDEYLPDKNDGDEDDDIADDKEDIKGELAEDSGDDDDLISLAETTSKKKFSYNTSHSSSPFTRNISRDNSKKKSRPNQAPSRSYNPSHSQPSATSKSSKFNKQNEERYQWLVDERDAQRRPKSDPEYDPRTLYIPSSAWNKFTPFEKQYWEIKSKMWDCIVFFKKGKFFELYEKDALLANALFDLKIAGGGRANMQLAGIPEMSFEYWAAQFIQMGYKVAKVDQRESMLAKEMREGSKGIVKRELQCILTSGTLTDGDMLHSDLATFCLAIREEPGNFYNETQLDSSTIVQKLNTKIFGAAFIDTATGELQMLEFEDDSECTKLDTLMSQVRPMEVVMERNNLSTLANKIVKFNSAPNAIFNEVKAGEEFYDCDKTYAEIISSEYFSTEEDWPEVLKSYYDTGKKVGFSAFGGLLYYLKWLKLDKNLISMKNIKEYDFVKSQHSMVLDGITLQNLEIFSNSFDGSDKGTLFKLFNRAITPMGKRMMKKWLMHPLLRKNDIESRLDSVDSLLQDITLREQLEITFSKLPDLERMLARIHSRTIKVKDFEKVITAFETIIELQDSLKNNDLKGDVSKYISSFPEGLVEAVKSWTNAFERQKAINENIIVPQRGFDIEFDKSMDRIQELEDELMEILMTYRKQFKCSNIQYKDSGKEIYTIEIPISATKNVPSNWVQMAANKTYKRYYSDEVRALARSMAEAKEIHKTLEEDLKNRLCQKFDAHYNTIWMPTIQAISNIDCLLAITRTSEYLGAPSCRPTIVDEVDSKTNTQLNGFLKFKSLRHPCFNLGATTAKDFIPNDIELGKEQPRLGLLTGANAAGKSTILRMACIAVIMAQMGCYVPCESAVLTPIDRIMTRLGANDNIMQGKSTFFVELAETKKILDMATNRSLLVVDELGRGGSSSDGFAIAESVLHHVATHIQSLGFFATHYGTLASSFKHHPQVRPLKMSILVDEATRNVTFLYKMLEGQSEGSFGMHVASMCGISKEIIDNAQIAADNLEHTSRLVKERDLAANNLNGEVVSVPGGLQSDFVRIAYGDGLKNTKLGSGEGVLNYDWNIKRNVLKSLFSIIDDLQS

Msh2(K694M)–Msh6 = Msh2(K694M)–Msh6 (S. cerevisiae, UniProt P25847 1-964; Q03834 1-1242, K694M); assay: cell-based or functional assay
Sequence of Msh2(K694M)–Msh6 (P25847 whole entry K694M, chain 1 of 2): as the sequence (P25847 whole entry K694A, chain 1 of 2) above, with A694M counted along it
Sequence of Msh2(K694M)–Msh6 (Q03834 whole entry, chain 2 of 2): as the sequence (Q03834 whole entry, chain 2 of 2) above

Msh2–Msh6(K988R) = biological target: T1, Msh2–Msh6(K988R) (S. cerevisiae, UniProt P25847 1-964; Q03834 1-1242, K988R); assay: SPR; Biacore T100; 236-bp GT mispair DNA held by biotin-streptavidin, other end blocked by lacO-LacI; 20 nM Msh2–Msh6, 250 μM ATP, 30 nM LacI for 100 s, then the same plus 40 nM Mlh1–Pms1 for 300 s; recruitment read as the increase in RU over steady-state Msh2–Msh6; 25 mM Tris pH 8, 4 mM MgCl2, 110 mM NaCl, 0.01% Igepal, 2 mM DTT, 2% glycerol; 10 °C, 20 μl/min; conditions: both partners purified
T1 construct: Msh2, S. cerevisiae, wild type; Msh6, S. cerevisiae, Walker A lysine mutant; also called Walker A Lys mutant Msh2–Msh6 complex
T1 sequence (P25847 whole entry, chain 1 of 2): as the sequence (P25847 whole entry K694A, chain 1 of 2) above, with A694K counted along it
T1 sequence (Q03834 whole entry K988R, chain 2 of 2): as the sequence (Q03834 whole entry, chain 2 of 2) above, with K988R counted along it

Msh2–Msh6(K988A) = biological target: T2, Msh2–Msh6(K988A) (S. cerevisiae, UniProt P25847 1-964; Q03834 1-1242, K988A); assay: as above; conditions: both partners purified
T2 construct: Msh2, S. cerevisiae, wild type; Msh6, S. cerevisiae, Walker A lysine mutant; also called Walker A Lys mutant Msh2–Msh6 complex
T2 sequence (P25847 whole entry, chain 1 of 2): as the sequence (P25847 whole entry K694A, chain 1 of 2) above, with A694K counted along it
T2 sequence (Q03834 whole entry K988A, chain 2 of 2): as the sequence (Q03834 whole entry, chain 2 of 2) above, with K988A counted along it

[1] = biological target: T3, S. cerevisiae Msh2–Msh6 (WT) (S. cerevisiae, UniProt P25847 1-964; Q03834 1-1242); assay: as above; conditions: both partners purified
T3 construct: Msh2, S. cerevisiae, wild type; Msh6, S. cerevisiae, wild type; Heterodimer; also called WT Msh2–Msh6
T3 sequence (P25847 whole entry, chain 1 of 2): as the sequence (P25847 whole entry K694A, chain 1 of 2) above, with A694K counted along it
T3 sequence (Q03834 whole entry, chain 2 of 2): as the sequence (Q03834 whole entry, chain 2 of 2) above

Msh2–Msh6(K988M) = biological target: T4, Msh2–Msh6(K988M) (S. cerevisiae, UniProt P25847 1-964; Q03834 1-1242, K988M); assay: as above; conditions: both partners purified
T4 construct: Msh2, S. cerevisiae, wild type; Msh6, S. cerevisiae, Walker A lysine mutant; also called Walker A Lys mutant Msh2–Msh6 complex; source: purified
T4 sequence (P25847 whole entry, chain 1 of 2): as the sequence (P25847 whole entry K694A, chain 1 of 2) above, with A694K counted along it
T4 sequence (Q03834 whole entry K988M, chain 2 of 2): as the sequence (Q03834 whole entry, chain 2 of 2) above, with K988M counted along it

Sequence of Msh2(K694R)–Msh6 (P25847 whole entry K694R, chain 1 of 2): as the sequence (P25847 whole entry K694A, chain 1 of 2) above, with A694R counted along it
Sequence of Msh2(K694R)–Msh6 (Q03834 whole entry, chain 2 of 2): as the sequence (Q03834 whole entry, chain 2 of 2) above

Mlh1–Pms1 endonuclease nicking of a 3′ nicked mispaired DNA promoted by the Msh2–Msh6 variant (with PCNA, RFC-Δ1N), 0.1 and 2.5 mM ATP, relative to WT Msh2–Msh6 (Msh2(K694R)–Msh6): ~50 % of the nicking of WT Msh2–Msh6
Mlh1–Pms1 endonuclease nicking of a 3′ nicked mispaired DNA promoted by the Msh2–Msh6 variant (with PCNA, RFC-Δ1N), 0.1 and 2.5 mM ATP, relative to WT Msh2–Msh6 (Msh2(K694A)–Msh6): ~50 % of the nicking of WT Msh2–Msh6
Mlh1–Pms1 endonuclease nicking of a 3′ nicked mispaired DNA promoted by the Msh2–Msh6 variant (with PCNA, RFC-Δ1N), 0.1 and 2.5 mM ATP, relative to WT Msh2–Msh6 (Msh2(K694M)–Msh6): ~50 % of the nicking of WT Msh2–Msh6
binding result (Msh2–Msh6(K988R)): binds
binding result (Msh2–Msh6(K988A)): binds
stoichiometry N [1]: 1.07 Mlh1–Pms1 per Msh2–Msh6
binding result (Msh2–Msh6(K988M)): binds
B1: S. cerevisiae Mlh1–Pms1 (complex)
chain 1: MSLRIKALDASVVNKIAAGEIIISPVNALKEMMENSIDANATMIDILVKEGGIKVLQITDNGSGINKADLPILCERFTTSKLQKFEDLSQIQTYGFRGEALASISHVARVTVTTKVKEDRCAWRVSYAEGKMLESPKPVAGKDGTTILVEDLFFNIPSRLRALRSHNDEYSKILDVVGRYAIHSKDIGFSCKKFGDSNYSLSVKPSYTVQDRIRTVFNKSVASNLITFHISKVEDLNLESVDGKVCNLNFISKKSISPIFFINNRLVTCDLLRRALNSVYSNYLPKGNRPFIYLGIVIDPAAVDVNVHPTKREVRFLSQDEIIEKIANQLHAELSAIDTSRTFKASSISTNKPESLIPFNDTIESDRNRKSLRQAQVVENSYTTANSQLRKAKRQENKLVRIDASQAKITSFLSSSQQFNFEGSSTKRQLSEPKVTNVSHSQEAEKLTLNESEQPRDANTINDNDLKDQPKKKQKLGDYKVPSIADDEKNALPISKDGYIRVPKERVNVNLTSIKKLREKVDDSIHRELTDIFANLNYVGVVDEERRLAAIQHDLKLFLIDYGSVCYELFYQIGLTDFANFGKINLQSTNVSDDIVLYNLLSEFDELNDDASKEKIISKIWDMSSMLNEYYSIELVNDGLDNDLKSVKLKSLPLLLKGYIPSLVKLPFFIYRLGKEVDWEDEQECLDGILREIALLYIPDMVPKVDTSDASLSEDEKAQFINRKEHISSLLEHVLFPCIKRRFLAPRHILKDVVEIANLPDLYKVFERC
chain 2: MTQIHQINDIDVHRITSGQVITDLTTAVKELVDNSIDANANQIEIIFKDYGLESIECSDNGDGIDPSNYEFLALKHYTSKIAKFQDVAKVQTLGFRGEALSSLCGIAKLSVITTTSPPKADKLEYDMVGHITSKTTTSRNKGTTVLVSQLFHNLPVRQKEFSKTFKRQFTKCLTVIQGYAIINAAIKFSVWNITPKGKKNLILSTMRNSSMRKNISSVFGAGGMRGLEEVDLVLDLNPFKNRMLGKYTDDPDFLDLDYKIRVKGYISQNSFGCGRNSKDRQFIYVNKRPVEYSTLLKCCNEVYKTFNNVQFPAVFLNLELPMSLIDVNVTPDKRVILLHNERAVIDIFKTTLSDYYNRQELALPKRMCSQSEQQAQKRLKTEVFDDRSTTHESDNENYHTARSESNQSNHAHFNSTTGVIDKSNGTELTSVMDGNYTNVTDVIGSECEVSVDSSVVLDEGNSSTPTKKLPSIKTDSQNLSDLNLNNFSNPEFQNITSPDKARSLEKVVEEPVYFDIDGEKFQEKAVLSQADGLVFVDNECHEHTNDCCHQERRGSTDTEQDDEADSIYAEIEPVEINVRTPLKNSRKSISKDNYRSLSDGLTHRKFEDEILEYNLSTKNFKEISKNGKQMSSIISKRKSEAQENIIKNKDELEDFEQGEKYLTLTVSKNDFKKMEVVGQFNLGFIIVTRKVDNKYDLFIVDQHASDEKYNFETLQAVTVFKSQKLIIPQPVELSVIDELVVLDNLPVFEKNGFKLKIDEEEEFGSRVKLLSLPTSKQTLFDLGDFNELIHLIKEDGGLRRDNIRCSKIRSMFAMRACRSSIMIGKPLNKKTMTRVVHNLSELDKPWNCPHGRPTMRHLMELRDWSSFSKDYEI
notes: Mlh1, S. cerevisiae; Pms1, S. cerevisiae; also called MMR endonuclease Mlh1–Pms1
